Results on one substance are retold here after publication PMC3430215.

By stoichiometry N is commonly meant a count of units in the complex or per binding partner.

This assay deals with Dunaliella salina Hsp90 (DsHsp90) (Dunaliella salina). Briefly: SEC; Superdex G200 10/30 column on an AKTA system; 40 mM HEPES, 25 mM KCl, pH 7.5; apparent molecular weight from a standard curve of markers; single peak. (In general: In gel filtration, larger molecules generally elute earlier.)

As for “Dunaliella salina Hsp90 (DsHsp90) (natural protein)”, the stoichiometry N was 2.
